Measurements as given in the Human Domainome abundance scans (Beltran et al. 2025).

B1: POU domain, class 3, transcription factor 1, residues 247 to 324; numbered along this chain, Q03052 (parent)
chain: EDAPSSDDLEQFAKQFKQRRIKLGFTQADVGLALGTLYGNVFSQTTICRFEALQLSFKNMCKLKPLLNKWLEETDSSS
B2: Cytoplasmic polyadenylation element-binding protein 2, residues 513 to 575; numbered along this chain, Q7Z5Q1 (parent)
chain: KRVEVKPYVLDDQMCDECQGARCGGKFAPFFCANVTCLQYYCEFCWANIHSRAGREFHKPLVK

Variants of: B1
Assay: abundance fitness (aPCA) (normalised: wild type 0, dead -1); higher = more abundant; growth selection in yeast, the domain comes from the species named
Conditions: Homo sapiens

Abundance fitness, by site and new letter:
S77: N -0.141, Q 0.106, K 0.096, W -0.19, G 0.159, R -0.022, Y 0.044, F -0.243, D 0.036, E 0.002, H 0.054, C -0.165, A 0.065, P 0.071, T 0.061, M -0.029
T74: V 0.042, Q 0.089, R -0.009, G -0.418, A 0.12, H 0.231, S -0.141, K 0.04, M -0.062, E -0.121, C -0.009, F 0.453, I -0.479, N 0.278, Y -0.156, W -0.224
S76: M 0.012, V -0.015, T 0.103, K 0.12, D 0.089, R 0.058, G 0.062, H -0.196, I -0.426, C -0.341, P 0.099, Q 0.106, W -0.495, L -0.112, A -0.096

Variants of: B2
Assay: as above
Conditions: Homo sapiens

Abundance fitness of substitutions, site by site:
K1: A -0.32, T -0.036, H -0.599, I -0.215, W -0.985, Q -0.248, Y -0.236, L -0.417, C -0.276, R -0.216, F -0.292, N 0.143, V -0.509, G -0.218, E 0.038, M -0.184, D -0.01
V3: N -0.207, E 0.084, L -0.156, Y -0.37, H -0.039, F -0.197, D 0.107, I -0.041, C -0.945, S 0.013, M -0.091, K 0.112, T 0.167, G -0.1, A 0.059, P -0.028, Q 0.11, R -0.1
Q13: A -0.017, F -0.229
